In paper PMC1185577 (Nucleic Acids Research, 2005):

Molecular target: T1, glutathione S-transferase (GST)-L5 (S. cerevisiae, UniProt P26321 1-297)
T1 sequence (looked up): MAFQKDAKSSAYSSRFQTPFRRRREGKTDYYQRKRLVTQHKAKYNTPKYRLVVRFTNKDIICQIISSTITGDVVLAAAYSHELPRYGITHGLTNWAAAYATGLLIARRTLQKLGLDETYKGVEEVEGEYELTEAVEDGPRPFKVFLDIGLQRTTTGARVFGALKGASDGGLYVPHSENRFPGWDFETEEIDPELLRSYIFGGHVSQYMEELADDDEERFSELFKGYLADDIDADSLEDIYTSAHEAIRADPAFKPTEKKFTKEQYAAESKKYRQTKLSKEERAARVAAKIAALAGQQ
Test: pull-down

B1: maltose-binding protein (MBP)-Rrs1p (natural protein, S. cerevisiae, UniProt Q08746 1-203, looked up)
chain: MSAEDYKNLPVTVEKPIPVVYDLGNLAAFDSNVLDKNDLDSSNARREEKIKSLTRDNVQLLINQLLSLPMKTTTESVGGTGGQSSVMTLLQLPDPTTDLPREKPLPKAKAMTKWEKFAAKKGIKPKERAGKMIYDEASGEWVPKWGYKGANKKLDDQWLVEVDDKVKGTDNELIDPRTLNRAERKRLVKKNEKQQRRNMKNAL
Q: Does B1 bind?
A: Result: binds
